Here are results for 1 molecule from patent US20190010232A1 (Eli Lilly, published 2019).

For assay [1], the target named is T1, human PD-L1-Fc (R&D Systems, cat#156-B7) (human, UniProt Q9NZQ7 19-239).
T1 construct: Bought reagent; both are treated here as the same molecule; also called PD-L1 ligand; not shown: Fc part of the bought fusion protein
The experiment in a line: ELISA, plate coated with human PD-L1-Fc, detection with anti-human IgG F(ab')2-HRP.

The target in a further assay is PD-L1 expressed on cells (UniProt Q9NZQ7 19-290, limits assumed). The experiment in a line: cell-based or functional assay.
Sequence of PD-L1 expressed on cells (Q9NZQ7 19-290 limits assumed): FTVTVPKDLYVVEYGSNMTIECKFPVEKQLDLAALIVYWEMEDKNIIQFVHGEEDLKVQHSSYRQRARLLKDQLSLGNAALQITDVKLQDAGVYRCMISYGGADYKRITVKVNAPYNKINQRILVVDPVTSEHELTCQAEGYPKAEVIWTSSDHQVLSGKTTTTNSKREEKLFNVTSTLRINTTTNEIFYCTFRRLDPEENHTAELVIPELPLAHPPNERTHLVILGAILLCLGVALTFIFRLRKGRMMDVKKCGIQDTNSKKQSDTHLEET

T1 sequence (Q9NZQ7 19-239 limits assumed): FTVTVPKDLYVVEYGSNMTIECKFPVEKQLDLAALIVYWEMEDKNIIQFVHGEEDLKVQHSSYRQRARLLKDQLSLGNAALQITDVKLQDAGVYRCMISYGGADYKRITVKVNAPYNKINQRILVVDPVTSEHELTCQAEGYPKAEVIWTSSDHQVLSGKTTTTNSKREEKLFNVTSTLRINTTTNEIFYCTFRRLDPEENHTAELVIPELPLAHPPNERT

B1: parent PD-L1 antibody (as IgG1-EN homodimer) (antibody, V domains shown)
VH: QVQLVQSGAEVKKPGSSVKVSCKASGGTFSSYAISWVRQAPGQGLEWMGGIIPIFGTANYAQKFQGRVTITADKSTSTAYMELSSLRSEDTAVYYCARSPDYSPYYYYGMDVWGQGTTVTVSS
VL: QSVLTQPPSASGTPGQRVTISCSGSSSNIGSNTVNWYQQLPGTAPKLLIYGNSNRPSGVPDRFSGSKSGTSASLAISGLQSEDEADYYCQSYDSSLSGSVFGGGIKLTVL
notes: IgG1-EN homodimer; parent of the anti-PD-L1 arm of the bispecific antibodies; also called parental PD-L1 Ab; parental anti-PD-L1 antibody
With B1, the concentration for a half-maximal effect (EC50) in assay [1] came to 0.47 nM. Besides, the “EC50, PD-1/NFAT Reporter Jurkat T cell assay with PD-L1 positive T cell activator CHO cells” value with PD-L1 expressed on cells was 1.92 nM.
